How the values were obtained:
YY1(mut5) = YY1(mut5) (human, UniProt P25490 292-414, V324A;H325A;V326A;L340A;Q344A); assay: MST
YY1(F1-4) Q344A = YY1(F1-4) Q344A (human, UniProt P25490 292-414, Q344A); assay: EMSA
YY1(F1-4) H325A = YY1(F1-4) H325A (human, UniProt P25490 292-414, H325A); assay: EMSA
YY1(F1-4) R323A = YY1(F1-4) R323A (human, UniProt P25490 292-414, R323A); assay: EMSA
YY1(F1-4) = YY1(F1-4) (human, UniProt P25490 292-414); assay: MST
GST-YY1(F1-4) = GST-YY1(F1-4) (human, UniProt P25490 292-414); assay: competition
GST-YY1(F1-4), sequence (P25490 292-414): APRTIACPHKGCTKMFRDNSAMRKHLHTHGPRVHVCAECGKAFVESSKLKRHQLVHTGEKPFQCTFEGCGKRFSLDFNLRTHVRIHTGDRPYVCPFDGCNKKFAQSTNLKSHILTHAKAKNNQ

YY1(F1-4), sequence (P25490 292-414): as above
YY1(mut5), sequence (P25490 292-414 V324A/H325A/V326A/L340A/Q344A): as the sequence (P25490 292-414) above, with V33A, H34A, V35A, L49A, Q53A counted along it
YY1(F1-4) R323A, sequence (P25490 292-414 R323A): as the sequence (P25490 292-414) above, with R32A counted along it
YY1(F1-4) H325A, sequence (P25490 292-414 H325A): as the sequence (P25490 292-414) above, with H34A counted along it
YY1(F1-4) Q344A, sequence (P25490 292-414 Q344A): as the sequence (P25490 292-414) above, with Q53A counted along it

Binder	Kd (YY1(mut5))	binding result (YY1(F1-4) Q344A)	binding result (YY1(F1-4) H325A)	binding result (YY1(F1-4) R323A)	Kd (YY1(F1-4))	binding result (GST-YY1(F1-4))
AGGCGAUGGUGAGC (ssRNA) [m2 RNA]	31 ± 9 µM	binds	binds	binds	3.8 ± 0.6 µM	–
AAAAAAAAAAAAAA (ssRNA) [poly(A) RNA]	–	–	–	–	4.2 ± 0.5 µM	–
AAV P5 dsDNA (dsDNA) DNA 1: AGGGTCTCCATTTTGAAGCG DNA 2: CGCTTCAAAATGGAGACCCT	–	–	–	–	–	binds
